{
  "source": "patent US9663815B2",
  "about": "“Cytosolically-active peroxidases as reporters for microscopy” (Massachusetts Institute of Technology, priority 2011, dated 2017)",
  "molecules": {"B1": {"name": "APEX: triple mutant K14D/W41F/E112K of pea APX, Enhanced APX reporter (protein, listed as Pisum sativum)", "chain": "MGKSYPTVSPDYQDAIEKAKRKLRGFIAEKKCAPLILRLAFHSAGTFDSKTKTGGPFGTIKHQAELAHGANNGLDIAVRLLEPIKEQFPIVSYADFYQLAGVVAVEITGGPKVPFHPGREDKPEPPPEGRLPDATKGSDHLRDVFGKAMGLSDQDIVALSGGHTIGAAHKERSGFEGPWTSNPLIFDNSYFTELLTGEKDGLLQLPSDKALLTDSVFRPLVEKYAADEDVFFADYAEAHLKLSELGFAEA"}, "B2": {"name": "mAPX-NES: Flag-mAPX with C-terminal nuclear export signal, cytosolic expression (protein, UniProt P48534 2-250, looked up, variant K14D E112K)", "L-ascorbate peroxidase, …": "GKSYPTVSPDYQDAIEKAKRKLRGFIAEKKCAPLILRLAWHSAGTFDSKTKTGGPFGTIKHQAELAHGANNGLDIAVRLLEPIKEQFPIVSYADFYQLAGVVAVEITGGPKVPFHPGREDKPEPPPEGRLPDATKGSDHLRDVFGKAMGLSDQDIVALSGGHTIGAAHKERSGFEGPWTSNPLIFDNSYFTELLTGEKDGLLQLPSDKALLTDSVFRPLVEKYAADEDVFFADYAEAHLKLSELGFAEA", "modifications": "N-terminal Flag tag; C-terminal nuclear export signal", "notes": "Flag-mAPX with C-terminal nuclear export signal, cytosolic expression"}, "B3": {"name": "W41F/G69F/D133A/T135F/K136F: quintuple, most HRP-like active-site mutant of pea APX (protein, UniProt P48534 2-250, looked up, variant W41F G69F D133A T135F K136F)", "L-ascorbate peroxidase, …": "B2 L-ascorbate peroxidase, … with D13K, W40F, G68F, K111E, D132A, T134F, K135F"}, "B4": {"name": "mAPX−FFAF: sextuple mutant K14D, E112K, W41F, D133A, T135F, K136F of pea APX (protein, UniProt P48534 2-250, looked up, variant K14D E112K W41F D133A T135F K136F)", "L-ascorbate peroxidase, …": "B2 L-ascorbate peroxidase, … with W40F, D132A, T134F, K135F"}},
  "key": {"[1]": {"tested_on": "MCU (mitochondrial calcium uniporter)", "assay": "Functional assay for Ca2+ uptake of MCU fusions", "type": "cell-based, human", "details": "fusion to MCU, versus Flag-tagged MCU; data not shown"}, "HEK cells": {"tested_on": "HEK cells", "assay": "DAB staining of transfected cells (brightfield)", "type": "cell-based", "procedure": "Next, the activity of wt APX and mAPX was compared in mammalian cells.\n(§1) To generate a monomeric APX with improved activity, the two mAPX mutations (K14D/E112K) were added to each of the activity-enhanced mutants. […] The sextuple mutant (K14D, E112K, W41F, D133A, T135F, K136F=mAPX−FFAF), was compared to mAPX+W41F within cells. HEK cells were transfected with constructs targeted to the mitochondrial matrix (Table 3), while COS-7 cells were transfected with constructs fused to the C-terminus of connexin 43 (Table 3). After fixation, the cells were treated with DAB and H2O2 to generate DAB polymer. […] After fixation, cells were stained with anti-Flag (for matrix) or anti-myc (for connexin) antibody to visualize peroxidase expression levels. […] Therefore mAPX+W41F (K14D/E112K/W41F) was selected, denoted as “APEX” (for Enhanced APX), as the optimized reporter for subsequent experiments.\nA solution of 4% formaldehyde (freshly depolymerized from paraformaldehyde) with 2% glutaraldehyde in 10 mM phosphate buffered saline (PBS) was added to cells 24 hours after transfection. Cells were treated for 3 min at room temperature, then 30 min on ice. Cells were then washed 5×2 min using ice cold 10 mM PBS. Cells were blocked with 20 mM glycine for 5 min on ice. Cells were then washed 5×2 min with ice-cold 10 mM PBS. Cells were then treated with an ice-cold solution of DAB (0.5 mg/mL) and H2O2 (0.03%) in 10 mM PBS for 20 min. Cells were then washed 5×2 min with ice-cold 10 mM PBS. Cells were treated with 2% OsO4 in ice-cold 10 mM PBS for 30 min, then washed 5×2 min with ice-cold distilled deionized water. Cells were then placed under ice-cold 2% aqueous uranyl acetate for 24 hours.\n(§2) Any cell displaying detectable GFP fluorescence was considered transfected. Contact sites between neighboring transfected cells were identified using DIC imaging. Gap junctions were identified as lines of GFP fluorescence unambiguously overlaying with the plasma membrane of two transfected cells based on DIC. DAB stain intensity for APX-NES variants was analyzed using SlideBook. Transfected cells were identified by nuclear YFP fluorescence. In each transfected cell, a representative DAB-stained region was encircled, and its average brightfield intensity was calculated. Background intensity, determined for each field of view by encircling a representative region in the cytosol of an untransfected cell, was subtracted out. The bar graph in FIG. 2c represents mean data from >60 transfected cells."}, "COS-7 cells": {"tested_on": "COS-7 cells", "assay": "EM imaging after DAB/OsO4 staining", "type": "cell-based", "procedure": "Transfected cells cultured on poly-d-lysine coated glass bottom dishes (P35GC-0-14-C, MatTek Corp.) were fixed using room temperature 2% glutaraldehyde (Electron Microscopy Sciences) in 100 mM sodium cacodylate buffer with 2 mM CaCl2, pH 7.4, then quickly moved to ice. Cells were kept between 0 and 4° C. for all subsequent steps until resin infiltration. After 30-60 min, cells were rinsed 5×2 min in chilled buffer, then treated for 5 min in buffer containing 20 mM glycine to quench unreacted glutaraldehyde, followed by 5×2 min rinses in chilled buffer. A freshly-diluted solution of 0.5 mg/mL 3,3′-diaminobenzidine (DAB) tetrahydrochloride or the DAB free base (Sigma) dissolved in HCl were combined with 0.03% (v/v) H2O2 in chilled buffer, and the solution was added to cells for 1 to 15 min, depending on the sample. The reaction product generation could be monitored by transmitted LM. To halt the reaction, the DAB solution was removed, and cells were rinsed 5×2 min with chilled buffer. For correlated LM-EM imaging of connexin43-GFP-APEX, the procedure was the same except cells were immersed in 2% glutaraldehyde for ˜16 h, and regions of interest were identified by GFP fluorescence prior to treatment with DAB. After the DAB reaction was halted, cells were post-fixed for 30 min using 2% osmium tetroxide (Electron Microscopy Sciences) in chilled buffer. Cells were rinsed 5×2 min in chilled distilled water, then placed in chilled 2% aqueous uranyl acetate (Electron Microscopy Sciences) overnight. […]\nDAB-stained areas of embedded cultured cells were identified by transmitted light and the areas of interest were sawed out using a jeweler's saw and mounted on dummy acrylic blocks with cyanoacrylic adhesive. […] Electron micrographs recorded using a JEOL 1200 TEM operating at 80 keV."}, "connexin43 (Cx43)": {"tested_on": "connexin43 (Cx43)", "assay": "Connexin43 fusion localization to gap junctions", "type": "cell-based, rat", "details": "for localization of connexin43 fusion / gap junction formation: fused to connexin43", "procedure": "Both mAPX and wt APX were fused to connexin43 (Cx43), a protein that is sensitive to oligomeric tags (FIG. 4d) (McKinney, et. al., Nat Meth 6, 131-133 (2009); Lauf, et. al., FEBS letters 498, 11-15 (2001)).\nas §1, §2"}, "[2]": {"assay": "Gel filtration chromatography, oligomerization state", "type": "physicochemical", "details": "PBS pH 7.4", "procedure": "APX, fluorescent protein, or miniSOG preparations were diluted to the desired concentrations using chilled (4° C.) PBS and then allowed to incubate at room temperature for 30 min to overnight. Samples (100 μL) were run on a Waters HPLC system over a Superdex 75 10/300 column (GE Healthcare) that had been pre-equilibrated in PBS, pH 7.4. Samples were run isocratically in PBS at a flow rate of 0.5 mL/min. Elution of APX was monitored at 280 nm and 405 nm (heme absorbance). Empower software (Waters) was used for analysis of elution profiles. Apparent MWs were determined against low molecular weight standards (GE). […] The apparent MW of the monomer for wt APX was assumed to be equal to the apparent MW of mAPX at 0.25 μM.\nTo investigate whether this localization is an artifact of APEX dimerization at high concentrations, the experiment was repeated using a tandem dimer of APX^W41F (two APX^W41F proteins linked with a short amino acid chain, denoted tdAPX) as well as miniSOG in place of APEX. Additionally, gel filtration chromatography (GFC) was used to assess the relative abundance of oligomers that formed at increasing tdAPX concentrations in vitro (5 μM, 20 μM, and 47 μM). Three different linker lengths (18, 23, and 28 amino acids) were tested. His6-tagged proteins were expressed and purified from E. coli. All three variants gave a major peak with an apparent molecular weight (MW) of ˜56 kDa, as expected for tdAPX. The apparent MW of the major peak remained constant as a function of concentration for all three constructs. […] Therefore, the 28 amino acid linker variant was selected as the optimized tandem dimer to be used in EM experiments."}, "[3]": {"assay": "Guaiacol activity assay (Michaelis-Menten kinetics)", "type": "biochemical", "details": "guaiacol as substrate, purified enzyme", "procedure": "Data points represent the mean±standard deviation of 2-3 independent measurements. Initial rates are shown as a function of guaiacol concentration. H2O2 concentration was 90 μM, and enzyme concentration was 20 nM in all trials. Oxidation to tetraguaiacol was monitored by absorbance at 470 nm (ε470=22×10^3 M^−1 cm^−1)^2.\nHigh activity toward guaiacol generally correlated well with robust polymerization of DAB in vitro. Guaiacol assays were performed on a Nanodrop 2000c UV-vis spectrophotometer (Thermo Scientific) using its cuvette reader. HRP (Sigma) was prepared as a 10 μM stock in PBS, flash frozen and stored at −80° C., and thawed immediately before use. Guaiacol peroxidase activity was measured according to the protocol of Lad et. al.^35 Oxidation to tetraguaiacol was monitored by absorbance at 470 nm (ε470=22×10^3 M^−1 cm^−1). Kcat and KM were calculated by nonlinear regression fitting to the Michaelis-Menten equation using OriginPro (OriginLab Corporation). All values are reported as the mean±standard deviation for 2-3 independent Michaelis-Menten fittings, with each fitting using at least 5 values of substrate concentration ranging between 0.25 and 30 mM.\nIn order to improve the performance of mAPX in mammalian cells, monomeric APX was engineered with improved activity toward DAB in the hope that faster kinetics could compensate for diminished heme binding. The substrate binding site of APX was compared to that of HRP, which has faster kinetics and broader aromatic substrate tolerance (Henriksen, et. al., Journal of Biological Chemistry 274, 35005-35011 (1999)). In order to make APX more HRP-like, seven mutants of APX were designed that incorporated mostly aromatic residues into the active site (FIG. 5a). A colorimetric assay was employed using guaiacol, a prototypical aromatic peroxidase substrate, to determine Michaelis-Menten parameters (Kumar, et. al., Journal of Cell Science 108, 3725-3734 (1995); Henriksen, et. al., Journal of Biological Chemistry 274, 35005-35011 (1999)) (FIG. 5b and FIG. 10). […]"}},
  "note": "Where a chain is given by its changes, count along the chain named. Names and notes keep the numbering of the source.",
  "data": [
    {"molecule": "B1", "values": [
      {"measurement": "Ca2+ uptake of MCU fusion", "setting": "[1]", "value": "performed comparably to MCU appended to a small Flag epitope tag"},
      {"measurement": "DAB staining activity in mitochondrial matrix", "setting": "HEK cells; mitochondrial matrix-targeted constructs, HEK cells", "value": "much stronger DAB stain"},
      {"measurement": "EM contrast / DAB staining, ER lumen", "setting": "COS-7 cells; KDEL-targeted, COS-7", "value": "dense DAB staining throughout the ER tubular network"},
      {"measurement": "EM contrast / DAB staining, mitochondrial matrix", "setting": "COS-7 cells; Mito matrix-APEX, COS-7", "value": "strong contrast and well-defined cristae structures"},
      {"measurement": "activity in the intermembrane space (IMS)", "setting": "COS-7 cells; separate controls", "value": "highly active"},
      {"measurement": "DAB stain of connexin fusion", "setting": "connexin43 (Cx43); COS-7 cells, fused to C-terminus of connexin 43", "value": "strong DAB stain"},
      {"measurement": "localization of connexin43 fusion / gap junction formation", "setting": "connexin43 (Cx43)", "value": "behaves well as a fusion to Cx43"},
      {"measurement": "localization of connexin43 fusion / gap junction formation", "setting": "connexin43 (Cx43); listed as mAPX+W41F", "value": "incorporated well into gap junctions"},
      {"measurement": "oligomerization state", "setting": "[2]", "value": "equally monomeric to mAPX"}
    ]},
    {"molecule": "B2", "values": [
      {"measurement": "activity after culturing the cells with heme", "setting": "HEK cells; cytosol (NES), heme added after transfection", "value": "significantly boosted"}
    ]},
    {"molecule": "B3", "values": [
      {"measurement": "activity in vitro (guaiacol)", "setting": "[3]", "value": "most active"}
    ]},
    {"molecule": "B4", "values": [
      {"measurement": "localization of connexin43 fusion / gap junction formation", "setting": "connexin43 (Cx43)", "value": "formed very few gap junctions"}
    ]}
  ]
}
